For 2 substances, stoichiometry N and decrease of Xrs2 binding against wild-type Tel1 results are on record in publication PMC6796912.

Experiment [1] has as its target Saccharomyces cerevisiae Tel1 (TEL1-FLAG), endogenously purified (S. cerevisiae) (UniProt P38110). Description: cryo-EM structure; Tel1-FLAG purified from S. cerevisiae, 20–50 μg/mL in 20 mM HEPES pH 8.0, 40 mM KOAc, 5 mM MgCl2, 0.1% trehalose, 2 mM DTT, 0.01% NP-40; symmetric dimer (C2, 4.1 Å) and asymmetric dimer (4.3 Å) classes.
For experiment [2], the target named is GST-Xrs2 (full-length S. cerevisiae Xrs2) (S. cerevisiae) (UniProt P33301). Description: pull-down; glutathione sepharose saturated with full-length GST-Xrs2 added to lysates of yeast expressing wild-type or mutant Tel1; 2 h at 4 °C, washed 3 times with lysis buffer; immunoblot with anti-PAP antibody.
Chain of GST-Xrs2 (full-length S. cerevisiae Xrs2) (S. cerevisiae) (P33301 whole entry): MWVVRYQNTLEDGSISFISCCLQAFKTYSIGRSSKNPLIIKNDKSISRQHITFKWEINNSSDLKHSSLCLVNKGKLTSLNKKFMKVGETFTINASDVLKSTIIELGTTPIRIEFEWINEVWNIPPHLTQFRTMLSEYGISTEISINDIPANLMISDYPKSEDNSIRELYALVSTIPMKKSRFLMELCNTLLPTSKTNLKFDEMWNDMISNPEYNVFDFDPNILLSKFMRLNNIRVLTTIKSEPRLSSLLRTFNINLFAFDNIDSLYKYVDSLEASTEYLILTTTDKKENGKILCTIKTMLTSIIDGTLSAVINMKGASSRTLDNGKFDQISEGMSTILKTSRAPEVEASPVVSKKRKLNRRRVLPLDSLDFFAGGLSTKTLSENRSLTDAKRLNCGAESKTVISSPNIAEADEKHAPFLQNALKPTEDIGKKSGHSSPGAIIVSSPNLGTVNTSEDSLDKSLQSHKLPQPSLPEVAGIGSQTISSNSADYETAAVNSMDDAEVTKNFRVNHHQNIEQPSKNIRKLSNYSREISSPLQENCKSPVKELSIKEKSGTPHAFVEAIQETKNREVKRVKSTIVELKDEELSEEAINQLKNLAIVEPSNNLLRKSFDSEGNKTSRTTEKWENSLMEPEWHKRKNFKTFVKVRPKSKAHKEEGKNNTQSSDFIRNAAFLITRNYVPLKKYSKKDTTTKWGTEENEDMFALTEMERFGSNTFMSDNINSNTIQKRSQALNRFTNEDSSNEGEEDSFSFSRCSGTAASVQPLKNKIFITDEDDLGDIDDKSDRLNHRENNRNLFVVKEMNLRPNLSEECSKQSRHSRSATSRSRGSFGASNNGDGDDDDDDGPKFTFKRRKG

In turn, “Saccharomyces cerevisiae Tel1 (TEL1-FLAG), endogenously purified, P38110 1-2787” had a stoichiometry N in experiment [1] of 2.
In turn, Tel1 K2751E (TAP-tagged), P38110 1-2787 gave a decrease of Xrs2 binding against wild-type Tel1 in experiment [2] of 100%.

The term stoichiometry N denotes a count of units in the complex or per binding partner.
